In patent publication US8410045B2, “Camptothecin-peptide conjugates and pharmaceutical compositions containing the same” (Drais Pharmaceuticals, Inc., priority 2006, dated 2013):
Like-named read-outs stand apart in the source and are kept apart here. Where a SMILES comes first, the peptide text is derived from it. The star is where a group is joined. X4 = CC[C@@]1(O)C(=O)OCc2c1cc1n(c2=O)Cc2cc3cc(OC(=O)[C@H]4CC[C@H](CNC(=O)C5CCC(CN6C(=O)CC(*)C6=O)CC5)CC4)ccc3nc2-1; X1 = CCc1c2c(nc3ccc(OC(=O)CCCCCN4C(=O)CC(*)C4=O)cc13)-c1cc3c(c(=O)n1C2)COC(=O)[C@]3(O)CC

Key:
[1] = Stability of conjugates in citrated plasma at 37° C. (half life time, HPLC fluorescence); type: in vitro ADME, human; conditions: human, plasma
Method: (§1) The stability of the conjugates was tested in citrated plasma (10% (v/v) sodium citrate buffer, 0.106M) from different species (see Table 1 below). The conjugates at 2.55 μM were incubated at 37° C. in plasma. Samples were analysed using the HPLC fluorescence method described below (see chromatographic equipment and conditions) following TFA/acetonitrile extraction and the amount of free camptothecin, analogs or derivatives thereof (e.g. SN38) released by the conjugates was measured.
(§2) Chromatographic equipment and conditions: 150 μL of each sample were placed in 1.5 mL micro-centrifuge tubes. 450 μL of 5% (v/v) TFA in H2O was added to each tube and the mixture was vortexed for 5 seconds. Samples were then centrifuged at 16000 g, 3 minutes at +4° C. 100 μL of supernatant were placed in 1.5 mL micro-centrifuge tubes. Methanol (100 μL) was then immediately added and vortexed for 5 seconds. Samples were then centrifuged at 16000 g, 3 minutes at room temperature. 150 μL of supernatant were recovered for HPLC analysis. Conjugates, metabolites and camptothecin derivative (i.e. SN38) were separated by high-performance liquid chromatography (HPLC; Agilent 1100 series equipped with a fluorescence detector) using a 4.6×100 mm ([…] particle size) Luna C18(2) column (Phenomenex ref. 00D-4251-E0, Le Pecq, France). The aqueous component of the mobile phase (A) was 0.1% (v/v) TFA in water. The organic modifier (B) was acetonitrile containing 0.1% (v/v) TFA. For the conjugate and its metabolites an elution gradient increasing linearly the proportion of B from 15 to 37% in 2 min, from 37 to 47% in 6 min, followed by 2 min at 90% was applied with a constant flow rate of 1.2 mL/min. The proportion of B was then returned to the initial condition for 3.0 min.
(§3) The half life time of conjugate corresponds to the time necessary to have 50% by mole of free camptothecin, analogs or derivatives thereof released by the conjugates of the invention. In human plasma, the half life time of conjugate DPV1047-linker #1-SN38 (less than 5 mins) was shorter than that of conjugate DPV1047-linker #2-SN38 (6-7 mins), which, in turn, was shorter than that of conjugate DPV1047-linker #3-SN38 (12 mins).
(§4) As in Example II, the stability of these conjugates was tested in either human or dog plasma. Following incubation at 37° C., samples were analyzed after a TFA acetonitrile extraction by the HPLC fluorescence method described in Example II. The in vitro cytotoxicity (IC50) of these compounds was also evaluated.

[2] = as above; type: in vitro ADME; conditions: dog
Method: as §1, §2, §3, §4

[3] = as above; type: in vitro ADME; conditions: DPV1047-linker-SN38, 2.55 μM
Method: as §1, §2, §3

[4] = Toxicity study in the beagle dog following intravenous infusion
Method: Adult female and male beagle dogs were individually housed with free access to tap water. A pellet diet was distributed daily.
Dogs (1 dog for each drug and dose) were infused intravenously through the cephalic or saphenous vein. These intravenous infusions were made using a single-use catheter (Intraflon®) and a plastic syringe connected to a syringe pump. During the injection, the animals were restrained in a hammock.
Conjugates were dissolved in water for injection (10% of final volume) and diluted with 0.9% NaCl to their final concentration. The volume administered to each animal was adjusted according to body weight.
Clinical signs, hematological and intestinal toxicities were monitored during a period of 15 days after infusion. Each animal was checked at least twice a day for mortality or signs of morbidity.
The body weight of each animal was recorded on the day −1, 4, 10 and 13.
Peripheral blood samples were taken into EDTA tubes for the determination of following parameters on days −1, 5, 11 and 14: erythrocytes, hemoglobin, mean cell volume, packed cell volume, mean cell hemoglobin concentration, mean cell hemoglobin, thrombocytes, leucocytes, differential white cell count with cell morphology.

[5] = Pharmacokinetic study in the dog (blood, HPLC fluorescence); type: in vivo; conditions: dog blood; non-toxic doses (DPV1047-BCH-SN38 ≦20 mg/kg, DPV1047-MIC-SN38 ≦50 mg/kg)
Method: Peripheral blood samples were taken at different times following infusion for pharmacokinetic analysis.
Blood samples (2.5 mL) were collected in 5 mL in trisodium citrate tubes (Sarstedt S-Monovette® 9NC) containing 2.5 mL of 5% TFA (v/v) and vortexed for 5 seconds before storage at −80° C. (for less than two weeks).
Samples were then analyzed after a TFA and acetonitrile extraction by an HPLC fluorescence method, described below. […] Whole blood samples were acidified with TFA to protect the ester link of the conjugate against hydrolysis and allow protein precipitation to improve conjugate and SN38 recovery.
Five hundred microliters of each sample were then placed in 1.5 mL micro-centrifuge tubes to and centrifuged at 16000×g 3 min at +4° C. […] Methanol (100 μL) was then immediately added and the mixture stirred vigorously (vortex) for 5 seconds. Samples were then centrifuged at 16000×g, 3 min at room temperature.
One hundred and fifty microliters of the supernatant was recovered for HPLC analysis.
DPV1047-BCH-SN38 and its metabolite SN38 were separated by high-performance liquid chromatography (HPLC Agilent 1100 with a fluorescence detector) using the following method: […]

[6] = test system: HCT 116 human epithelial colon carcinoma cells; test: cells; type: cell-based
Method: (§5) Cytotoxic evaluation was performed by seeded cells for 24 h prior to the addition of the therapeutic compound. Cells were incubated for 48 h (37° C.) with different dilutions of the therapeutic compound. Cell viability was then assessed using the WST-1 assay (Roche). The results are expressed as mean cytotoxic concentrations (IC50 value or molar concentration that inhibits 50% of cell viability) that were estimated from sigmoid regression, using Graph Pad Prism 3.02 software.
HCT 116 (ATCC #: CCL-247): human epithelial colon carcinoma cells. Cells were cultured in Mc Coy's 5a medium+1.5 mM L-glutamine and 10% fetal bovine serum. Cells were plated at a density of 8000 cells/well in 96-well plates.

[7] = test system: NCI-H460 human epithelial lung carcinoma cells; test: In vitro cytotoxicity (WST-1 cell viability); type: cell-based
Method: as §5
NCI-H460 (ATCC#: HTB-177): human epithelial lung carcinoma cells. Cells were cultured in RPMI 1640+glutamax and 10% of fetal bovine serum. Cells were plated at a density of 10,000 cells/well in 96-well plates.

[8] = background statement; cited from earlier work
[9] = In vitro human serum stability study; type: in vitro ADME
Source text: Peptidic drug delivery systems have also been described in PCT patent application published under No WO 00/01417 filed by […] aiming to facilitate the delivery of different drugs, such as the 10-Hydroxycamptothecin. This patent application describes the use of homeobox peptide derived from the Drosophila antennapedia homoprotein (preferably a cell-penetrating peptide (CPP) named penetratin) for conjugation to a number of cytotoxic drugs, thus enhancing their delivery and/or therapeutic effect. […] Consequently the applicant has performed in vitro human serum stability studies using the conjugate described in example 29 of this patent application No WO 00/01417.

[10] = Table 14, 10-Hydroxycamptothecin conjugates, read-out: Human Plasma Half life time
[11] = Table 14, 10-Hydroxycamptothecin conjugates, read-out: Dog Plasma Half life time

CCc1c2c(nc3ccc(OC(=O)CCCCCN4C(=O)CC(SC[C@H](N)C(=O)N[C@H](C(=O)N[C@@H](CCCCN)C(=O)N[C@@H](CCCNC(=N)N)C(=O)NCC(=O)N[C@@H](CC(C)C)C(=O)N[C@@H](CCCCN)C(=O)N[C@@H](CC(C)C)C(=O)N[C@@H](CCCNC(=N)N)C(=O)N[C@@H](Cc5c[nH]cn5)C(=O)N[C@H](C(=O)N[C@@H](CCCNC(=N)N)C(=O)N5CCC[C@H]5C(=O)N[C@@H](CCCNC(=N)N)C(=O)N[C@H](C(=O)N[C@H](C(=O)N[C@@H](CCCNC(=N)N)C(=O)N[C@@H](CCSC)C(=O)N[C@@H](CC(=O)O)C(=O)N[C@H](C(=O)O)C(C)C)[C@@H](C)O)C(C)C)C(C)C)C(C)C)C4=O)cc13)-c1cc3c(c(=O)n1C2)COC(=O)[C@]3(O)CC (stereo partly shown) [DPV1047-MIC-SN38] (H-C(X1)VKRGLKLRHVRPRVTRMDV-OH)
half-life ([1]; DPV1047-linker-SN38, 2.55 μM, citrated plasma, read-out: Half life time, Human plasma): 6 to 7 min | half-life ([2]; DPV1047-linker-SN38, 2.55 μM, citrated plasma, read-out: Half life time, Dog plasma): 36 min | half-life ([3]; time to 50% by mole free SN38 released, read-out: Half life time, Mouse plasma): < 3 min | half-life ([3]; monkey): 8 min | half-life ([3]; rat): 3 min | MTD as mg equivalent of SN38 ([4]; beagle dog, i.v. infusion): 6.5-9.1 mg equivalent of SN38 | WBC depletion ([4]; dog, 70 mg/kg): 94% | signs of toxicity ([4]; dog, 70 mg/kg): gastro-intestinal toxicity, diarrhea and emesis | Reduction in WBC at D5 (%) ([4]; dog, i.v. infusion, 10 mg/kg): −44% | Toxic signs Day 1 ([4]; dog, i.v. infusion, 10 mg/kg): None | Toxic signs Following Days ([4]; dog, i.v. infusion, 10 mg/kg): None | Reduction in WBC at D5 (%) ([4]; dog, i.v. infusion, 20 mg/kg): −57% | Toxic signs Day 1 ([4]; dog, i.v. infusion, 20 mg/kg): None | Toxic signs Following Days ([4]; dog, i.v. infusion, 20 mg/kg): None | Reduction in WBC at D5 (%) ([4]; dog, i.v. infusion, 40 mg/kg): −69% | Toxic signs Day 1 ([4]; dog, i.v. infusion, 40 mg/kg): None | Toxic signs Following Days ([4]; dog, i.v. infusion, 40 mg/kg): None | Reduction in WBC at D5 (%) ([4]; dog, i.v. infusion, 50 mg/kg): −53% | Toxic signs Day 1 ([4]; dog, i.v. infusion, 50 mg/kg): None | Toxic signs Following Days ([4]; dog, i.v. infusion, 50 mg/kg): None | Reduction in WBC at D5 (%) ([4]; dog, i.v. infusion, 70 mg/kg): −94% | Toxic signs Day 1 ([4]; dog, i.v. infusion, 70 mg/kg): Vomit | Toxic signs Following Days ([4]; dog, i.v. infusion, 70 mg/kg): Liquid feces D4 | MTD ([4]; dog, in vivo, iv): 50 to 70 mg/kg | clinical signs ([4]; dogs, 10, 20, 40 and 50 mg/kg): no clinical signs | SN38 Cmax and AUC versus dose of the conjugate [5]: increased linearly with the dose

CCc1c2c(nc3ccc(O)cc13)-c1cc3c(c(=O)n1C2)COC(=O)[C@]3(O)CC [SN38, 7-ethyl-10-hydroxy-camptothecin, reference compound]
IC50 ([6]; Table 11, 48-h continuous exposure, mean of three independent experiments, read-out: Drug concentration that inhibits 50% of cell viability (IC50), HCT 116): 7 nM | IC50 ([7]; Table 11, 48-h continuous exposure, mean of three independent experiments, read-out: Drug concentration that inhibits 50% of cell viability (IC50), NCI-H460): 22 nM | fold more active than irinotecan as an anti-proliferative agent [8]: at least 2000 fold | solubility in water (Solubility in water): ≤ 5 µg/mL

CC[C@H](C)[C@H](NC(=O)[C@H](CCCCN)NC(=O)[C@@H](NC(=O)[C@H](CCC(N)=O)NC(=O)[C@H](CCCNC(=N)N)NC(=O)[C@@H](N)CSC1CC(=O)N(CCC(=O)Oc2ccc3nc4c(cc3c2)Cn2c-4cc3c(c2=O)COC(=O)[C@]3(O)CC)C1=O)[C@@H](C)CC)C(=O)N[C@@H](Cc1c[nH]c2ccccc12)C(=O)N[C@@H](Cc1ccccc1)C(=O)N[C@@H](CCC(N)=O)C(=O)N[C@@H](CC(N)=O)C(=O)N[C@@H](CCCNC(=N)N)C(=O)N[C@@H](CCCNC(=N)N)C(=O)N[C@@H](CCSC)C(=O)N[C@@H](CCCCN)C(=O)N[C@@H](Cc1c[nH]c2ccccc12)C(=O)N[C@@H](CCCCN)C(=O)N[C@@H](CCCCN)C(=O)O (stereo partly shown) [reference compound]
half-life [1, 10]: < 3 min | half-life [2, 11]: 6 min | half life time (stability) in human serum [9]: less than three

CC[C@@]1(O)C(=O)OCc2c1cc1n(c2=O)Cc2cc3cc(OC(=O)[C@H]4CC[C@H](CNC(=O)C5CCC(CN6C(=O)CC(SC[C@H](N)C(=O)N[C@H](C(=O)N[C@@H](CCCCN)C(=O)N[C@@H](CCCNC(=N)N)C(=O)NCC(=O)N[C@@H](CC(C)C)C(=O)N[C@@H](CCCCN)C(=O)N[C@@H](CC(C)C)C(=O)N[C@@H](CCCNC(=N)N)C(=O)N[C@@H](Cc7c[nH]cn7)C(=O)N[C@H](C(=O)N[C@@H](CCCNC(=N)N)C(=O)N7CCC[C@H]7C(=O)N[C@@H](CCCNC(=N)N)C(=O)N[C@H](C(=O)N[C@H](C(=O)N[C@@H](CCCNC(=N)N)C(=O)N[C@@H](CCSC)C(=O)N[C@@H](CC(=O)O)C(=O)N[C@H](C(=O)O)C(C)C)[C@@H](C)O)C(C)C)C(C)C)C(C)C)C6=O)CC5)CC4)ccc3nc2-1 (stereo partly shown) [DPV1047-linker #5-10 Hydroxycamptothecin] (H-C(X4)VKRGLKLRHVRPRVTRMDV-OH; N-terminus and C-terminus assumed)
half-life [1, 10]: 214 min | half-life [2, 11]: 180 min | IC50 ([6]; 48 h): 185 nM | IC50 ([7]; 48 h): 112 nM
